# Experimental data as given in the DeepSol protein solubility set.
# Experiment: soluble on expression in E. coli; label from the status in PepcDB or PDB records
row,Sequence,soluble on expression in E. coli
1,MREIVWVHSQRIAPYKTLILNEFCYYPLELDPTPFNALIFTSKNAVFSLLETLKNSPKLKMLQNIPAYALSEPTAKTLQDHHFKVAFMGEKAHGKEFVQEIFPLLEKKSVLYLRAKEIVSSLDTILLEHGIDFKQAVVYENKLKHLTLSEQNALKPKEKSILIFTAISHAKAFLHYFEFLENYTAISIGNTTALYLQEQGIPSYIAKKPSLEACLELALSLRIKEC,not soluble
2,MRGDDMHIYELVSRDRTHPVRIYLLHSEYWTEDEFYNLLLEAFQRSSASDWHLQILEVSKYLVTAHGFVEAGGLQEIGFPGELSKTEVRRRINAFLGKDRSD,soluble
3,MRGRAVSRNAIIGIVHRNAKLAAIGFGRAKSSPASEGSSTYTPEEIKLVADCLKAKRNYVQIAQRLALKSGRIISRFGVKSLIRRTPELNEIGFRGKKGRPSDKKKAAPGQLPGRLFIAATADIDRDPSAFDYLTRPAVRALASQPHFAAMRFVDCLPARCRAPLSYDLEERPGPDMLCCGHLAMPSRSYCAYHEIRLTARKAEFIAEAALEHHHHHH,not soluble
4,MRGSGPRDRGSNPRPATTPTALSYISLPTSDSTRWGGLAVARARGVVLGYRRGTNTQYPQHALVKLLLDDPRKAGLYVSGIAFYRDRYGNVYKGRVLRLHGRRGGVVVVKFNPPLPGQATGGVVEVVKAGGDGLEHHHHHH,not soluble
5,MRGSHHHHHHGIQMVSIAINGFGRIGRLVLRIALERKNIDVVAINDPFISVDYAAYMFKYDSTHGKYKGEVSHDGSNLIINGKKVAVFQEKDPATLPWGKLGVDIAVDSTGVFKELDSAQKHIDAGAKKVVITAPSKTAPMFVVGVNEDKYNGEKIVSNASCTTNCLAPIAKIINDEFGIEEGLMTTVHSITATQKTVDGPSHKDWRGGRTASGNIIPSSTGAAKAVGKVLPELQGKLTGMAFRVPTTDVSVVDLTVKLVKAATYDEIKAAVKKVSEGKLKDVVGYTEDAVVSSDFLGDTHSTIFDAAAGIQLSPKFVKLVAWYDNEYGYSTRVVDLVEHVA,soluble
6,MRGSHHHHHHGSACCASRDDWRCARSMHEFSAKDIDGHMVNLDKYRGFVCIVTNVASQCGKTEVNYTQLVDLHARYAECGLRILAFPCNQFGKQEPGSNEEIKEFAAGYNVKFDMFSKICVNGDDAHPLWKWMKIQPKGKGILGNAIKWNFTKFLIDKNGCVVKRYGPMEEPLVIEKDLPHYF,soluble
7,MRGSHHHHHHGSACMFSNKTRQDSIQKMQQEELDLLIIGGGITGAGVAVQAAASGIKTGLIEMQDFAEGTSSRSTKLVHGGIRYLKTFDVEVVADTVGERAVVQGIAPHIPKPDPMLLPIYEDEGATTFNMFSVKVAMDLYDKLANVTGTKYENYTLTPEEVLEREPFLKKEGLKGAGVYLDFRNNDARLVIDNIKKAAEDGAYLVSKMKAVGFLYEGDQIVGVKARDLLTDEVIEIKAKLVINTSGPWVDKVRNLNFTRPVSPKMRPTKGIHLVVDAKKLPVPQPTYFDTGKQDGRMVFAIPRENKTYFGTTDTDYQGDFTDPKVTQEDVDYLLDVINHRYPEANITLADIEASWAGLRPLLIGNSGSPSTISRGSSLEREPDGLLTLSGGKITDYRKMAEGALRLIRQLLKEEYGIETKEIDSKKYQISGGNFDPTKLEETVTELAKEGVAAGLEEEDATYIADFYGTNARRIFELAKEMAPYPGLSLAESARLRYGLEEEMVLAPGDYLIRRTNHLLFERDQLDEIKQPVIDAIAEYFGWTEEEKAQQTKRLEALIAESDLRELKGEK,soluble
8,MRGSHHHHHHGSAELHLESRGGSGTQLRDGAKVATGRIICREAHTGFHVWMNERQVDGRAERYVVQSKDGRHELRVRTGGDGWSPVKGEGGKGVSRPGQEEQVFFDVMADGNQDIAPGEYRFSVGGACVVPQEDNKQGFTPSGTTGTTKLTVT,soluble
9,MRGSHHHHHHGSMGKGITGFDPSLYSYLQSISADDSFYLAQLRRETAHLPGAPMQISPEQAQFLGLLISLTGAKQVLEIGVFRGYSALAMALQLPPDGQIIACDQDPNATAIAKKYWQKAGVAEKISLRLGPALATLEQLTQGKPLPEFDLIFIDADKRNYPRYYEIGLNLLRRGGLMVIDNVLWHGKVTEVDPQEAQTQVLQQFNRDLAQDERVRISVIPLGDGMTLALKK,soluble
10,MRGSHHHHHHTDPALRADYRKIIKEIGRGKNHARDLDRDTARGLYAHMLNGEVPDLELGGVLIALRIKGEGEAEMLGFYEAMQNHTIKLTPPAGKPMPIVIPSYNGARKQANLTPLLAILLHKLGFPVVVHGVSEDPTRVLTETIFELMGITPTLHGGQAQAKLDEHQPVFMPVGAFCPPLEKQLAMRWRMGVRNSAHTLAKLATPFAEGEALRLSSVSHPEYIGRVAKFFSDIGGRALLMHGTEGEVYANPQRCPQINLIDREGMRVLYEKQDTAGSELLPQAKDPETTAQWIERCLAGSEPIPESLKIQMACCLVATGEAATISDGLARVNQAFGLCGR,soluble
11,MRGSHHHHHHTDPALRASSNTFTLGTKSVNRLGYGAMQLAGPGVFGPPRDRHVAITVLREALALGVNHIDTSDFYGPHVTNQIIREALYPYSDDLTIVTKIGARRGEDASWLPAFSPAELQKAVHDNLRNLGLDVLDVVNLRVMMGDGHGPAEGSIEASLTVLAEMQQQGLVKHIGLSNVTPTQVAEARKIAEIVCVQNEYNIAHRADDAMIDALAHDGIAYVPFFPLGGFTPLQSSTLSDVAASLGATPMQVALAWLLQRSPNILLIPGTSSVAHLRENMAAEKLHLSEEVLSTLDGISREGLCGR,soluble
12,MRHAKSAYPDGIADHDRPLAPRGIREAGLAGGWLRANLPAVDAVLCSTATRARQTLAHTGIDAPARYAERLYGAAPGTVIEEINRVGDNVTTLLVVGHEPTTSALAIVLASISGTDAAVAERISEKFPTSGIAVLRVAGHWADVEPGCAALVGFHVPR,soluble
13,MRHGCHTVIASRSLPRVLTAARKLAGATGRRCLPLSMDVRAPPAVMAAVDQALKEFGRIDILINCAAGNFLCPAGALSFNAFKTVMDIDTSGTFNVSRVLYEKFFRDHGGVIVNITATLGNRGQALQVHAGSAKAAVDAMTRHLAVEWGPQNIRVNSLAPGPISGTEGLRRLGGPQASLSTKVTASPLQRLGNKTEIAHSVLYLASPLASYVTGAVLVADGGAWLTFPNGVKGLPDFASFSAKL,not soluble
14,MRHISIFGTSSDAGKSTLTFVIAKILQRAGIRVAPFKAQNVSNNARVCDDGSEIAIAQSFQAEVLAIPTSYHLNPILLKSGINGQASVIVEGQVISQQDVLEYYRDLDTLKPAVQRCFETLAKMYDCIVAEGAGSPVELNLMDKDLSNIFIAKHYQTKIILVADIEKGGVFASVWGTYNLLPADLRSNVIGVIINKFRGDLSLFDEGIRIIEQAFKIPVLGVLPYMPFNLGFEDNASLQNFVQQPRQKKLKIGVIAYPYMSNYNDFEPLIADDEVLLEFINSPISLEHFDGVILPGSKLVIEDLHWLKTNGLFEQLQQRRKPIFAICGGYEMLFEQLHDPERIENLEPTTATGLGLIDDEIYFAKNKILNKAEYPIFGLNIAGFEMHHGISQKYPLYFQKDNIQGTFIHQVFDHNAFRTQYLRAICAQYQGFDFQLYKTEQINNFIEACRKRLNVKLILEAIQDQ,not soluble
15,MRHLKSFYVFHVAASSSSYTEAADKLNITHGAVSKQIKQLEQYLSQPLFLKEGRKSVLTAEGELLKTYTKTAFQTLETGVNTLIQEKHQHLEVSCEPTLTMRWLMPRLAAFNDEHRADVR,not soluble
16,MRHPIPDYLASLVTELGAVNPGETAQYIPVLAEADPDRFGIALATPTGRLHCAGDADVEFTIQSASKPFTYAAALVDRGFAAVDRQVGLNPSGEAFNELSLEAESHRPDNAMINAGALAVHQLLVGPEASRKERLDRAVEIMSLLAGRRLSVDWETYESEMAVSDRNLSLAHMLRSYGVLQDSAEEIVAGYVAQCAVLVTVKDLAVMGACLATGGIHPMTGERMLPSIVARRVVSVMTSSGMYDAAGQWLADVGIPAKSGVAGGVLGALPGRVGIGVFSPRLDEVGNSARGVLACRRLSEDFRLHLMDGDSLGGTAVRFVEREGDRVFLHLQGVIRFGGAEAVLDALTDLRTGAEKPGTGWDAAVYPRWQEAAADRAALSAATGGGAVHEAAAAAARDENDGPIRTVVLNLARVDRIDDVGRRLIAEGVRRLQADGVRVEVEDPERILPLEEAGAH,soluble
17,MRHPLISLLLLIAFYSTSSEAFVPKCNSFYVRWPRVRLNFKAVAEARLSLKGCQSACSLGEDPVSPGKQLECAAVNHQASPDGFSHLCAVFQPHQLQNVDGYVEADDRFTFYWKYCLPSTRKCSGEYAFTYLSDRYMDQKSVIKWTTKANLEECLSDCLDEKSFECRSISFNRTDGGCHMSKDSQISRPEAIRLNNNPNYRIDYYENNCYNLSESFTFKHECRDNGISVSVKSRLPYTGAIYGLYDFFTCRTEPKEATEFDHFFPYQTVSKNCSDSIKYKGNEMVLEVVLSTDGIEPLYFITPEDLTYQAKCPISGVKAKDPANTKSSAHLDNRNKAMEASAHALFELLSKTGDDEALQNTFPLPLTTTTEVISDVPTTTVQTSTTVPTTPSKTTATTTTTPKPTTTETATTSSSTTTVTTQKPTTVTSTTTLPSTTASTTTKTTTSTPTSPQTTTTHVGAPASSVASVAHDGSTLAGKPKVPVIFDIFHNGQPVEAVVVGTKISLSFRPHYPIPPEYVDVRGCQVEPIDPKYEWEHEPLFIIRDGCPADGVGLVCPPTHSEFGAKVSVEAFRYQTTGQVQYSCLVRICPFAPCPKNTCDDVEGCDSSYMHRYRRELSLEDIKKALEANPELASQFGISPSAFARNPSKSKNFTSVVEEQQRIALGGDYLVRRRLIVVNSEDQLRYYVRTGNI,not soluble
18,MRHVSNGDPVRVVIVTDGAYGAPAESGDYAQTRRRESTRAAAILGYGAPEFWNLPDRGLEYGERLIQRVLTAMEDHAAELVYAPSWWEVHPDHRVLALAATEAVRRCTRPLRLAMYEVGVPLQPNALLDITDLAERKASAVACFSSQLAQQDYDEQIASLNRFRTYTLPRTVRAAEGYLVLAAEELRNRIPRMMTQKDRLAVRGETGDTAATPLVSVIIPSMDGPRLKEALDSVALQTYPRIEAVVIDAKGEGHTPLPRWCGRFPLRFIPSDISLSRGRAADVGLEHAEGDYLVFLGEDDVFQPGDVASLVAEAARKQGTGLCSHADRRMTVFSGGVVDGSPRTGKPGKPAFLPLHAVLFDRSLAELRCRFDGDANVPEDGDFWDQAMQHVASIHPGACRHGHGLPGGEAGRHTIVRLPPWTSPAPLPPGASLARTPHPTERDSLRRRIQRAGRRIYETPPRGLTDALVRTAYRIWARLSSDSMITNDGKGTLEHHHHHH,not soluble
19,MRIAVIDYDKCNPDKCGHFLCERVCPVNRMGGEAIIIDEENNRPIIQEASCTGCGICVHKCPFKAISIVNLPEQLEEDCVHRYGVNAFVLYRLPVVKDGMVVGIVGPNGTGKTTAVKILAGQLIPNLCCDNDSWDDVIKAFRGSELQNYFEKLKNGEIKPVVKPQYVDLLPKAVKGKVGELLKKVDETGKFEEIVKVLELEKVLEREIDQLSGGELQRVAIAAAILRKAHFYFFDEPSSYLDIRQRLNVARVIRRLADEGKAVLVVEHDLAVLDYLSDIVHIVYGEPGVYGIFSQPKGTRNGINEFLQGYLKDENVRFRPYEIKFTKLSERVEVERETLVEYPRLVKDYGSFKLEVEPGEIRKGEVIGIVGPNGIGKTTFVKMLAGVEEPTEGKVEWDLTVAYKPQYIKAEYEGTVYDLLSKIDASKLNSNFYKTELLKPLGIIDLYDKNVNELSGGELQRVAIAATLLRDADIYLLDEPSAYLDVEQRLATSRAIRHLMEKNEKTALVVEHDVLMIDYVSDRLIVFEGEPSKYGKALPPMGMREGMNRFLASVGITFRRDPDTGRPRANKEGSVKDREQKEKGEYYYTD,soluble
